Laboratory results as given in patent US20180016318A1 (Eli Lilly, published 2018).
Starred links: 1 amine or outer side, 2 acyl side, 3 side chain; linkers in the order of their positions; H or OH if unused. Non-standard residues stand in square brackets, D forms with d. Groups on a side chain read outwards from the residue. No end group written: not given here. *: point of attachment. C20 diacid = O=C(O)CCCCCCCCCCCCCCCCCCC(=O)*; C18 diacid = O=C(O)CCCCCCCCCCCCCCCCC(=O)*; γGlu = O=C(O)[C@H](CCC(=O)[*:2])N[*:1]; NMeI = CC[C@H](C)[C@H](NC)C(=O)O; AEEA = NCCOCCOCC(=O)O

Biological target: T1, human CRHR1 (corticotropin releasing hormone receptor-1) (human, UniProt P34998 24-415)
T1 sequence (looked up): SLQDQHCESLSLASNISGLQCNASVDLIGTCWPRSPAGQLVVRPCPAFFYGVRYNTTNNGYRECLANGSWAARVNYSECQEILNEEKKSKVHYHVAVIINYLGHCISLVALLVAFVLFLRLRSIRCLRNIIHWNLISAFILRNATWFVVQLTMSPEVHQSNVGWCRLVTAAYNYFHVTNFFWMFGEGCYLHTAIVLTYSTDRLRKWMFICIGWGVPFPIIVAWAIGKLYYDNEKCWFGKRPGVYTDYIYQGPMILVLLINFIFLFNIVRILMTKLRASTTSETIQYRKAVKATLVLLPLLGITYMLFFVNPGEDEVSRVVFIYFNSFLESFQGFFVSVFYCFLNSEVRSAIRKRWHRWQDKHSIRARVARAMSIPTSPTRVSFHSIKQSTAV
Test: cell-based or functional assay

Row | Molecule | Average EC50 (nM), cell-based cAMP assay, Y79 cells with endogenous human CRHR1 [nM]
1 | IVLSLDVPIGLLQILLEQARARAAREQATTNARILARV-NH2 (ligand) [human UCN2 (urocortin-2)] | > 100000
2 | [NMeI]VLSLDVPIGLLQILLEQEKQEKEKQQAK([AEEA-AEEA-γGlu-γGlu-C18 diacid])TNAQILAQV-NH2 (N-terminus assumed; SMILES CC[C@H](C)[C@H](NC)C(=O)N[C@H](C(=O)N[C@@H](CC(C)C)C(=O)N[C@@H](CO)C(=O)N[C@@H](CC(C)C)C(=O)N[C@@H](CC(=O)O)C(=O)N[C@H](C(=O)N1CCC[C@H]1C(=O)N[C@H](C(=O)NCC(=O)N[C@@H](CC(C)C)C(=O)N[C@@H](CC(C)C)C(=O)N[C@@H](CCC(N)=O)C(=O)N[C@H](C(=O)N[C@@H](CC(C)C)C(=O)N[C@@H](CC(C)C)C(=O)N[C@@H](CCC(=O)O)C(=O)N[C@@H](CCC(N)=O)C(=O)N[C@@H](CCC(=O)O)C(=O)N[C@@H](CCCCN)C(=O)N[C@@H](CCC(N)=O)C(=O)N[C@@H](CCC(=O)O)C(=O)N[C@@H](CCCCN)C(=O)N[C@@H](CCC(=O)O)C(=O)N[C@@H](CCCCN)C(=O)N[C@@H](CCC(N)=O)C(=O)N[C@@H](CCC(N)=O)C(=O)N[C@@H](C)C(=O)N[C@@H](CCCCNC(=O)COCCOCCNC(=O)COCCOCCNC(=O)CC[C@H](NC(=O)CC[C@H](NC(=O)CCCCCCCCCCCCCCCCC(=O)O)C(=O)O)C(=O)O)C(=O)N[C@H](C(=O)N[C@@H](CC(N)=O)C(=O)N[C@@H](C)C(=O)N[C@@H](CCC(N)=O)C(=O)N[C@H](C(=O)N[C@@H](CC(C)C)C(=O)N[C@@H](C)C(=O)N[C@@H](CCC(N)=O)C(=O)N[C@H](C(N)=O)C(C)C)[C@@H](C)CC)[C@@H](C)O)[C@@H](C)CC)[C@@H](C)CC)C(C)C)C(C)C) [Example 3 (SEQ ID NO: 3)] | > 100000
3 | Ac-IVLSLDVPIGLLQILLEQEKQEKEKQQAK([AEEA-AEEA-γGlu-γGlu-C18 diacid])TNAQILAQV-NH2 (SMILES CC[C@H](C)[C@H](NC(C)=O)C(=O)N[C@H](C(=O)N[C@@H](CC(C)C)C(=O)N[C@@H](CO)C(=O)N[C@@H](CC(C)C)C(=O)N[C@@H](CC(=O)O)C(=O)N[C@H](C(=O)N1CCC[C@H]1C(=O)N[C@H](C(=O)NCC(=O)N[C@@H](CC(C)C)C(=O)N[C@@H](CC(C)C)C(=O)N[C@@H](CCC(N)=O)C(=O)N[C@H](C(=O)N[C@@H](CC(C)C)C(=O)N[C@@H](CC(C)C)C(=O)N[C@@H](CCC(=O)O)C(=O)N[C@@H](CCC(N)=O)C(=O)N[C@@H](CCC(=O)O)C(=O)N[C@@H](CCCCN)C(=O)N[C@@H](CCC(N)=O)C(=O)N[C@@H](CCC(=O)O)C(=O)N[C@@H](CCCCN)C(=O)N[C@@H](CCC(=O)O)C(=O)N[C@@H](CCCCN)C(=O)N[C@@H](CCC(N)=O)C(=O)N[C@@H](CCC(N)=O)C(=O)N[C@@H](C)C(=O)N[C@@H](CCCCNC(=O)COCCOCCNC(=O)COCCOCCNC(=O)CC[C@H](NC(=O)CC[C@H](NC(=O)CCCCCCCCCCCCCCCCC(=O)O)C(=O)O)C(=O)O)C(=O)N[C@H](C(=O)N[C@@H](CC(N)=O)C(=O)N[C@@H](C)C(=O)N[C@@H](CCC(N)=O)C(=O)N[C@H](C(=O)N[C@@H](CC(C)C)C(=O)N[C@@H](C)C(=O)N[C@@H](CCC(N)=O)C(=O)N[C@H](C(N)=O)C(C)C)[C@@H](C)CC)[C@@H](C)O)[C@@H](C)CC)[C@@H](C)CC)C(C)C)C(C)C) [Example 1 (SEQ ID NO: 1)] | ~10000
4 | [NMeI]VLSLDVPIGLLQILLEQEKQEKEKQQAK([AEEA-AEEA-γGlu-γGlu-C20 diacid])TNAQILAQV-NH2 [Example 4 (SEQ ID NO: 4)] | > 100000
5 | [NMeI]VTSLDVPIGLLQILIEQEKQEKEKQQAK([AEEA-AEEA-γGlu-γGlu-C20 diacid])TNAEILAQV-NH2 (N-terminus assumed; SMILES CC[C@H](C)[C@H](NC)C(=O)N[C@H](C(=O)N[C@H](C(=O)N[C@@H](CO)C(=O)N[C@@H](CC(C)C)C(=O)N[C@@H](CC(=O)O)C(=O)N[C@H](C(=O)N1CCC[C@H]1C(=O)N[C@H](C(=O)NCC(=O)N[C@@H](CC(C)C)C(=O)N[C@@H](CC(C)C)C(=O)N[C@@H](CCC(N)=O)C(=O)N[C@H](C(=O)N[C@@H](CC(C)C)C(=O)N[C@H](C(=O)N[C@@H](CCC(=O)O)C(=O)N[C@@H](CCC(N)=O)C(=O)N[C@@H](CCC(=O)O)C(=O)N[C@@H](CCCCN)C(=O)N[C@@H](CCC(N)=O)C(=O)N[C@@H](CCC(=O)O)C(=O)N[C@@H](CCCCN)C(=O)N[C@@H](CCC(=O)O)C(=O)N[C@@H](CCCCN)C(=O)N[C@@H](CCC(N)=O)C(=O)N[C@@H](CCC(N)=O)C(=O)N[C@@H](C)C(=O)N[C@@H](CCCCNC(=O)COCCOCCNC(=O)COCCOCCNC(=O)CC[C@H](NC(=O)CC[C@H](NC(=O)CCCCCCCCCCCCCCCCCCC(=O)O)C(=O)O)C(=O)O)C(=O)N[C@H](C(=O)N[C@@H](CC(N)=O)C(=O)N[C@@H](C)C(=O)N[C@@H](CCC(=O)O)C(=O)N[C@H](C(=O)N[C@@H](CC(C)C)C(=O)N[C@@H](C)C(=O)N[C@@H](CCC(N)=O)C(=O)N[C@H](C(N)=O)C(C)C)[C@@H](C)CC)[C@@H](C)O)[C@@H](C)CC)[C@@H](C)CC)[C@@H](C)CC)C(C)C)[C@@H](C)O)C(C)C) [Example 7 (SEQ ID NO: 7)] | ~100000
6 | [NMeI]VTSLDVPIGLLQILLEQEKQEKEKQQAK([AEEA-AEEA-γGlu-γGlu-C20 diacid])TNAEILAQV-NH2 [Example 5 (SEQ ID NO: 5)] | 33900
7 | Ac-IVLSLDVPIGLLQILLEQEKQEKEKQQAK([AEEA-AEEA-γGlu-γGlu-C20 diacid])TNAQILAQV-NH2 [Example 2 (SEQ ID NO: 2)] | > 10000
8 | [NMeI]VLSLDVPIGLLQILLEQEKQEKEKQQAK([AEEA-AEEA-γGlu-γGlu-C20 diacid])TNAEILAQV-NH2 (N-terminus assumed; SMILES CC[C@H](C)[C@H](NC)C(=O)N[C@H](C(=O)N[C@@H](CC(C)C)C(=O)N[C@@H](CO)C(=O)N[C@@H](CC(C)C)C(=O)N[C@@H](CC(=O)O)C(=O)N[C@H](C(=O)N1CCC[C@H]1C(=O)N[C@H](C(=O)NCC(=O)N[C@@H](CC(C)C)C(=O)N[C@@H](CC(C)C)C(=O)N[C@@H](CCC(N)=O)C(=O)N[C@H](C(=O)N[C@@H](CC(C)C)C(=O)N[C@@H](CC(C)C)C(=O)N[C@@H](CCC(=O)O)C(=O)N[C@@H](CCC(N)=O)C(=O)N[C@@H](CCC(=O)O)C(=O)N[C@@H](CCCCN)C(=O)N[C@@H](CCC(N)=O)C(=O)N[C@@H](CCC(=O)O)C(=O)N[C@@H](CCCCN)C(=O)N[C@@H](CCC(=O)O)C(=O)N[C@@H](CCCCN)C(=O)N[C@@H](CCC(N)=O)C(=O)N[C@@H](CCC(N)=O)C(=O)N[C@@H](C)C(=O)N[C@@H](CCCCNC(=O)COCCOCCNC(=O)COCCOCCNC(=O)CC[C@H](NC(=O)CC[C@H](NC(=O)CCCCCCCCCCCCCCCCCCC(=O)O)C(=O)O)C(=O)O)C(=O)N[C@H](C(=O)N[C@@H](CC(N)=O)C(=O)N[C@@H](C)C(=O)N[C@@H](CCC(=O)O)C(=O)N[C@H](C(=O)N[C@@H](CC(C)C)C(=O)N[C@@H](C)C(=O)N[C@@H](CCC(N)=O)C(=O)N[C@H](C(N)=O)C(C)C)[C@@H](C)CC)[C@@H](C)O)[C@@H](C)CC)[C@@H](C)CC)C(C)C)C(C)C) [Example 6 (SEQ ID NO: 6)] | > 100000

Biological target: human CRHR1 (corticotropin releasing hormone receptor-1) (human) (UniProt P34998)
Test: cell-based or functional assay

Row | Molecule | Average EC50 (nM), cell-based cAMP assay, Y79 cells with endogenous human CRHR1 [nM]
9 | human UCN1 (urocortin-1) (from UniProt P55089 83-122) (ligand) | 7.3
